Experimental findings from patent US20230322958A1 (Genentech, published 2023) are described below.

Sequences and labels used below:
B1: 1B2.v104.Fab-huIgG1.N297G (antibody, V domains shown)
VH: EVQLVESGGGLVQPGGSLKLSCAVSGFTFSDFYMEWVRQASGKGLEWVAAQRNKANDFSIVYSASVKDRFTISRDDSKSTLYLQMNSLKTEDTAVYYCSRDGGKLALDAWGQGTLVTVSS
VL: DIQMTQSPSSVSASVGDRVTITCQTSEDIYSGLAWYQQKPGKSPKLLIYGASRLQDGVPSRFSGSGSGTDYTLTISSLQPEDFATYYCQQGFKYPLTFGGGTKVEIK
notes: Tetravalent Fab-IgG format, human IgG1 N297G; also called Tetravalent Fab-IgG; 1B2.v104 Fab-IgG
B2: 1B2.v104.huIgG1.N297G (antibody, V domains shown)
VH: EVQLVESGGGLVQPGGSLKLSCAVSGFTFSDFYMEWVRQASGKGLEWVAAQRNKANDFSIVYSASVKDRFTISRDDSKSTLYLQMNSLKTEDTAVYYCSRDGGKLALDAWGQGTLVTVSS
VL: DIQMTQSPSSVSASVGDRVTITCQTSEDIYSGLAWYQQKPGKSPKLLIYGASRLQDGVPSRFSGSGSGTDYTLTISSLQPEDFATYYCQQGFKYPLTFGGGTKVEIK
notes: Human IgG1 with N297G; also called Bivalent IgG antibody; 1B2.v104 IgG
B3: 1B2.v104.huFab.LC_K149C.MMTS_capped (Fab, V domains shown)
VH: EVQLVESGGGLVQPGGSLKLSCAVSGFTFSDFYMEWVRQASGKGLEWVAAQRNKANDFSIVYSASVKDRFTISRDDSKSTLYLQMNSLKTEDTAVYYCSRDGGKLALDAWGQGTLVTVSS
VL: DIQMTQSPSSVSASVGDRVTITCQTSEDIYSGLAWYQQKPGKSPKLLIYGASRLQDGVPSRFSGSGSGTDYTLTISSLQPEDFATYYCQQGFKYPLTFGGGTKVEIKR
modifications: engineered Cys (K149C) capped with MMTS
notes: Monovalent Fab used in the KinExA experiments; also called Monovalent Fab
B4: rat.1B2 (rat/human chimeric anti-Notch2 antibody 1B2) (antibody, V domains shown)
VH: EVKLVDYGGGLVQPGASLRLSCEVSGFTFSDFYMEWIRQAPGKGLEWIAASRNKANNFSIVYSASVKDRFTISRDTYKSILYLQMSTLKPEDTAVYYCSRDSGRWGLDAWGQGTSVIVSS
VL: DIQMTQSPASLSASLGETVTIQCQTSEDIYSGLAWYHQKPGKSPQLLIYGASRLQDGVPSRFTGSGSGTQYSLKISSMQTEDEGVYFCQQGFKYPLTFGSGTKLEIK
notes: also called 1B2 Chimeric; chimeric 1B2
B5: hu1B2.L1H1.DFS (antibody, V domains shown)
VH: EVQLVESGGGLVQPGGSLKLSCAVSGFTFSDFYMEWIRQASGKGLEWIAASRNKANDFSIVYSASVKDRFTISRDTSKSTLYLQMNSLKTEDTAVYYCSRDSGRWGLDAWGQGTLVTVSS
VL: DIQMTQSPSSVSASVGDRVTITCQTSEDIYSGLAWYQQKPGKSPKLLIYGASRLQDGVPSRFSGSGSGTDYTLTISSLQPEDFATYFCQQGFKYPLTFGGGTKVEIK
notes: Human IgG1 backbone; also called hu1B2.v1.DFS
B6: 1B2.v104.huFab.LC_K149C.dPEG19_dimer (other)
heavy: EVQLVESGGGLVQPGGSLKLSCAVSGFTFSDFYMEWVRQASGKGLEWVAAQRNKANDFSIVYSASVKDRFTISRDDSKSTLYLQMNSLKTEDTAVYYCSRDGGKLALDAWGQGTLVTVSSASTKGPSVFPLAPSSKSTSGGTAALGCLVKDYFPEPVTVSWNSGALTSGVHTFPAVLQSSGLYSLSSVVTVPSSSLGTQTYICNVNHKPSNTKVDKKVEPKSCD
light: DIQMTQSPSSVSASVGDRVTITCQTSEDIYSGLAWYQQKPGKSPKLLIYGASRLQDGVPSRFSGSGSGTDYTLTISSLQPEDFATYYCQQGFKYPLTFGGGTKVEIKRTVAAPSVFIFPPSDEQLKSGTASVVCLLNNFYPREAKVQWCVDNALQSGNSQESVTEQDSKDSTYSLSSTLTLSKADYEKHKVYACEVTHQGLSSPVTKSFNRGEC
modifications: engineered Cys (K149C) joined through maleimide to Bis-Mal-PEG19
B7: 1B2.v104.huFab.LC_K149C.dPEG_4-arm-Mal-3kD (other)
heavy: EVQLVESGGGLVQPGGSLKLSCAVSGFTFSDFYMEWVRQASGKGLEWVAAQRNKANDFSIVYSASVKDRFTISRDDSKSTLYLQMNSLKTEDTAVYYCSRDGGKLALDAWGQGTLVTVSSASTKGPSVFPLAPSSKSTSGGTAALGCLVKDYFPEPVTVSWNSGALTSGVHTFPAVLQSSGLYSLSSVVTVPSSSLGTQTYICNVNHKPSNTKVDKKVEPKSCD
light: DIQMTQSPSSVSASVGDRVTITCQTSEDIYSGLAWYQQKPGKSPKLLIYGASRLQDGVPSRFSGSGSGTDYTLTISSLQPEDFATYYCQQGFKYPLTFGGGTKVEIKRTVAAPSVFIFPPSDEQLKSGTASVVCLLNNFYPREAKVQWCVDNALQSGNSQESVTEQDSKDSTYSLSSTLTLSKADYEKHKVYACEVTHQGLSSPVTKSFNRGEC
modifications: engineered Cys (K149C) joined through maleimide to a 4-arm maleimide dPEG linker (3 kD)
B8: 1B2.v104.huFab.LC_K149C.PEG_4-arm-Mal-10kD (other)
heavy: EVQLVESGGGLVQPGGSLKLSCAVSGFTFSDFYMEWVRQASGKGLEWVAAQRNKANDFSIVYSASVKDRFTISRDDSKSTLYLQMNSLKTEDTAVYYCSRDGGKLALDAWGQGTLVTVSSASTKGPSVFPLAPSSKSTSGGTAALGCLVKDYFPEPVTVSWNSGALTSGVHTFPAVLQSSGLYSLSSVVTVPSSSLGTQTYICNVNHKPSNTKVDKKVEPKSCD
light: DIQMTQSPSSVSASVGDRVTITCQTSEDIYSGLAWYQQKPGKSPKLLIYGASRLQDGVPSRFSGSGSGTDYTLTISSLQPEDFATYYCQQGFKYPLTFGGGTKVEIKRTVAAPSVFIFPPSDEQLKSGTASVVCLLNNFYPREAKVQWCVDNALQSGNSQESVTEQDSKDSTYSLSSTLTLSKADYEKHKVYACEVTHQGLSSPVTKSFNRGEC
modifications: engineered Cys (K149C) joined through maleimide to a 4-arm maleimide PEG linker (10 kD)
B9: 1B2.v104.huFab.LC_K149C.PEG_6-arm-Mal-6kD (other)
heavy: EVQLVESGGGLVQPGGSLKLSCAVSGFTFSDFYMEWVRQASGKGLEWVAAQRNKANDFSIVYSASVKDRFTISRDDSKSTLYLQMNSLKTEDTAVYYCSRDGGKLALDAWGQGTLVTVSSASTKGPSVFPLAPSSKSTSGGTAALGCLVKDYFPEPVTVSWNSGALTSGVHTFPAVLQSSGLYSLSSVVTVPSSSLGTQTYICNVNHKPSNTKVDKKVEPKSCD
light: DIQMTQSPSSVSASVGDRVTITCQTSEDIYSGLAWYQQKPGKSPKLLIYGASRLQDGVPSRFSGSGSGTDYTLTISSLQPEDFATYYCQQGFKYPLTFGGGTKVEIKRTVAAPSVFIFPPSDEQLKSGTASVVCLLNNFYPREAKVQWCVDNALQSGNSQESVTEQDSKDSTYSLSSTLTLSKADYEKHKVYACEVTHQGLSSPVTKSFNRGEC
modifications: engineered Cys (K149C) joined through maleimide to 6ARM(DP)-MAL-6000
B10: rb.2430 (rabbit/human chimeric anti-Notch2 antibody 2430) (antibody, V domains shown)
VH: QSVEESGGRLVTPGTPLTLTCTVSGFSLSSYDMSWVRQAPGKGLEWIGIIQAGSNTLFYASWAKGRFTISKTSTTVDLKITSPTTEDTATYFCARGGVIFIIGHFNLWGPGTLVTVSS
VL: AQVLTQTASSVSAAVGGTVTINCQASQSVVNNRLAWYQQKPGQPPKLLMYGASTLESGVSSRFKGSGSGTQFTLTISGVQCDDAATYYCQGEFLCSSGDCVAFGGGTKVEIK
B11: rb.2621 (rabbit/human chimeric anti-Notch2 antibody 2621) (antibody, V domains shown)
VH: QSLEESGGGLVQPGASLTLTCTASGFSFSSGYDMCWVRQAPGKGLEWIACIVTVSGNTYYASWAKGRFTISKTSSTTVTLQMTSLTAADTATYFCARDGGFTDTWYFHLWGPGTLVTVSS
VL: AYDMTQTPASVEVAVGGTVTIKCQASESIGSYLAWYQQKPGQPPKLLIYRASTLASGVPSRFKGSGSGTEFTLTISGVQCDDAATYYCQQTYSGAGVDNLFGGGTKVEIK
B12: rb.2338 (rabbit/human chimeric anti-Notch2 antibody 2338) (antibody, V domains shown)
VH: QSLEESGGDLVKPGASLTLTCTASGFSFSSGYDMCWVRQAPGKGLEWIACIYAGSEGFTYYASWAKGRFTISKSSSTTVTLQMTSLTVADTATYFCARWTDSDGSNLWGPGTLVTVSS
VL: DVVMTQTPASVEAAVGGTVTIKCQASQSISSYLAWYQQKPGQPPKLLIYRASKLASGVPSRFSGRGSGTQFTLTISDLECADAATYYCQSNSYGNNWVGGFGGGTKVEIK

For the first assay, the target named is T1, human Notch2 on U-87 MG cells (human, UniProt Q04721 26-2471).
T1 construct: Endogenous Notch2 of human cell line U87-MG; also called huNotch2 (N2) on U87-MG; Notch2-expressing U-87 cells
T1 sequence (Q04721 26-2471): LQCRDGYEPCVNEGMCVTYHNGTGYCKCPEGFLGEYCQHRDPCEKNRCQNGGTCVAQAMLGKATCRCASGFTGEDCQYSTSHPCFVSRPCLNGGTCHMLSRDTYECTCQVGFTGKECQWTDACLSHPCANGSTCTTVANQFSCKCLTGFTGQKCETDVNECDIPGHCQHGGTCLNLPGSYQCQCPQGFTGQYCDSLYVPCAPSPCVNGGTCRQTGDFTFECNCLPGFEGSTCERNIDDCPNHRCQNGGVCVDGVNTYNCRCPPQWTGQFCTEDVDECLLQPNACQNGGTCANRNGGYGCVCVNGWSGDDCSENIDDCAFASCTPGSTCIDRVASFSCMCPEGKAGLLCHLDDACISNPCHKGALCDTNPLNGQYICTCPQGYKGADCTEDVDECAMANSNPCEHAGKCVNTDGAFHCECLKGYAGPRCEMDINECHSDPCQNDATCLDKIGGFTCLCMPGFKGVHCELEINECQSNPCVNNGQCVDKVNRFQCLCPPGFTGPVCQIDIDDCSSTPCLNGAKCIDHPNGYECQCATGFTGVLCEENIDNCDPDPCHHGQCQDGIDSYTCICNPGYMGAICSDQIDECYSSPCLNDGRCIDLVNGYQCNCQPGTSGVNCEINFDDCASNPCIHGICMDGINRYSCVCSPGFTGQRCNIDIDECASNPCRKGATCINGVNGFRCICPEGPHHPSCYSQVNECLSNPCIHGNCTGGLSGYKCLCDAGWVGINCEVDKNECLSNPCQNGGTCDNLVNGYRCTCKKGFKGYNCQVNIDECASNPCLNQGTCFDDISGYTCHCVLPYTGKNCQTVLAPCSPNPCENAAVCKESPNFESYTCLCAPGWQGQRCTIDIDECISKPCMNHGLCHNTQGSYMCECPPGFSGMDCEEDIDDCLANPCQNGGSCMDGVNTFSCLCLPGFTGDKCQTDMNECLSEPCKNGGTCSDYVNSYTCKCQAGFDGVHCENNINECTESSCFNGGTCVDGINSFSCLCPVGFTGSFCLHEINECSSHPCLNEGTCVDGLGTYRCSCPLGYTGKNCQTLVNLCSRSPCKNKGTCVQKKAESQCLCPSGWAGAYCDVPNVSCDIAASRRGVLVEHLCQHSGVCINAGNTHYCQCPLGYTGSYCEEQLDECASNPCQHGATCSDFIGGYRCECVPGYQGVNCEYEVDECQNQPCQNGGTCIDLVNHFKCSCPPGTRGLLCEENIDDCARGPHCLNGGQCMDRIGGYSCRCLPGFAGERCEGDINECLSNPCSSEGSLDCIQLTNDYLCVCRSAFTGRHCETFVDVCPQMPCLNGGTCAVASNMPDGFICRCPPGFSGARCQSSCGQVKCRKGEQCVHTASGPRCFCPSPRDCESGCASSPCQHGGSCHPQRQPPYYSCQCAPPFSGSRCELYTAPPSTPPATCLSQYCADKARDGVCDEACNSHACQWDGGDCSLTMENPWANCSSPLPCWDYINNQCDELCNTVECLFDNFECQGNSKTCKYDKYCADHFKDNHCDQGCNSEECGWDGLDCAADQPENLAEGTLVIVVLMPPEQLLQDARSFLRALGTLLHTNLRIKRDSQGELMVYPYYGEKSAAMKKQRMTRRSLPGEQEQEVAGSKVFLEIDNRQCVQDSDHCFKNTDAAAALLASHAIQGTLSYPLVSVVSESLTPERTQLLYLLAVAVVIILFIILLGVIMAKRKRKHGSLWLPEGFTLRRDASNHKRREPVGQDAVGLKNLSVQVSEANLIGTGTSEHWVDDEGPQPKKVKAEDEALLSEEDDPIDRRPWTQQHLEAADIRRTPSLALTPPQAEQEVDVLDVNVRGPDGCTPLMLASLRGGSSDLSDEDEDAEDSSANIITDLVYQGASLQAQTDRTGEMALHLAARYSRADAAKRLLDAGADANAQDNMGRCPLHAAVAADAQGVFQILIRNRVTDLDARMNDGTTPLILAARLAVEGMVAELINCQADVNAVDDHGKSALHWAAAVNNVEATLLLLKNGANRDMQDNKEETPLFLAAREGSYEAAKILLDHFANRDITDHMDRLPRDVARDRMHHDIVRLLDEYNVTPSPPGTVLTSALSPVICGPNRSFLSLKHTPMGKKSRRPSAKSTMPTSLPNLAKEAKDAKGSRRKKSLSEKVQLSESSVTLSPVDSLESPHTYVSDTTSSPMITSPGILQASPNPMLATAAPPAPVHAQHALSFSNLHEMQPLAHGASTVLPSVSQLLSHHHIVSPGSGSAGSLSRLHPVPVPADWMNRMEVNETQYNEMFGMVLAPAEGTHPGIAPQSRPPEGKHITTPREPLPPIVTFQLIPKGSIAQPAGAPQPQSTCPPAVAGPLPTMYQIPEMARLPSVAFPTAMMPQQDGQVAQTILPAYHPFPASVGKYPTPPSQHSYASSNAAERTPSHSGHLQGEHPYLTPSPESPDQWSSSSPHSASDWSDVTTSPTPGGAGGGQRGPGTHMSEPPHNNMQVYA
In words: KinExA equilibrium whole-cell analysis on Notch2-expressing U-87 cells. The protocol: After incubation, the cells were centrifuged and the supernatants, containing the free fraction of antibody or Fab construct, were removed without disturbing the cell pellets and transferred onto a KinExA 3200 instrument with autosampler (Sapidyne Instruments Inc). Each supernatant was flowed over a solid phase composed of polystyrene beads (#440176, Sapidyne Instruments Inc) coated with biotinylated goat anti-human Immunoglobulin G (IgG) heavy+light (H+L) (#109-065-003, Jackson ImmunoResearch Laboratories Inc.) or biotinylated Notch2 extracellular domain to capture the free antibody or Fab construct. […] The fluorescent signals were recorded and converted to a voltage signal that is directly proportional to the amount of free antibody or Fab construct in the equilibrated sample. Using the built in Equilibrium Whole Cell analysis method, the KinExA Pro software performed a least squares analysis on the measured data to fit optimal solutions for the KD and the activity of the free antibody or Fab construct to a curve representative of a 1:1 reversible bi-molecular interaction. […] A N-curve analysis was applied for the testing of the two concentrations of antibody or Fab construct to determine the KD on Notch2-expressing U-87 cells.
The binding kinetics were determined using a similar assay format as the one used for the equilibrium analysis, with the exception that measurements were collected “pre-equilibrium” and the binding signals were plotted as a function of time. For the KinExA direct method, anti-Notch2 antibody and Fab formats were incubated with Notch2-expressing U-87 cells at a fixed concentration (Table 12) and aliquots of the cell binding solution were collected at different time points to determine the fraction of free antibody or Fab format. The KinExA Pro software was then used to determine the association rate constant (Kₒₙ).
(In KinExA the mixture passes briefly over coated beads that capture the unbound partner.)
The term Kd denotes the equilibrium constant for the complex coming apart. Take B1: the Kd was 0.195 nM.
For the molecule B2, the dissociation constant Kd is 0.0353 nM.
Still for that read-out and setting: then B3, with 1.98 nM.

Another assay concerns the target T2, huNotch2-EGF6-10 (human, UniProt Q04721 219-418).
T2 construct: also called human Notch2 EGF6-10
T2 sequence: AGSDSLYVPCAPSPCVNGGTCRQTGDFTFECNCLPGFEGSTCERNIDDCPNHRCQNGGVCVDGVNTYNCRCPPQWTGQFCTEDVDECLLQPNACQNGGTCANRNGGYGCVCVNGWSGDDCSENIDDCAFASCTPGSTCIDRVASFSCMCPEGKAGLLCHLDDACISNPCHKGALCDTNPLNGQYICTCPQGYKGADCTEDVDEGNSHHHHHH
In words: SPR BIAcore T200, antibody captured on protein A, 37 C. The protocol: The binding affinities of the antibodies was determined by BIAcore™ T200 machine. Rabbit antibodies were expressed as chimeric antibodies with rabbit variable domains and human constant domains. Rat antibodies were expressed as chimeric antibodies with rat variable domains and human constant regions. Humanized antibodies were expressed in the human IgG1 backbone. For kinetics measurements, antibodies were captured on research grade protein A chip (GE Healthcare) to achieve approximately 300 RU. Ten-fold serial dilutions of huNotch2-EGF6-10 were injected in HBS-P buffer with additional 3 mM CaCl₂ at 37° C. with a flow rate of 100 μL/min. Association rates (ka) and dissociation rates (kd) were calculated using a 1:1 Langmuir binding model (BIAcore™ T200 Evaluation Software version 2.0). The equilibrium dissociation constant (KD) was calculated as the ratio kd/ka.
A general note: SPR reads the build-up and loss of mass on a sensor chip optically.
As a reminder, the koff is the first-order rate constant of dissociation. A lower koff goes with slow dissociation. Broadly, the kon is a measure of how fast the partners come together. Regarding B4, the Kd stood at 5.21 nM, the koff stood at 0.000943 s⁻¹ and the on-rate (kon) was 181000 M⁻¹ s⁻¹.
B5 displayed a Kd of 5.15 nM, a koff of 0.00116 s⁻¹ and a kon of 226000 M⁻¹ s⁻¹.

The next assay addresses T1, human Notch2 on U-87 MG cells. The assay can be described thus: cell-based or functional assay.
On to B6, for which the “DLL Inhibition (IC50)” value is > 1000 nM.
As to B7, the “DLL Inhibition (IC50)” value was > 500 nM and the “Jag1 Inhibition (IC50)” value was found to be 0.35 nM.
With B8, the “DLL Inhibition (IC50)” value is > 500 nM and the “Jag1 Inhibition (IC50)” value came out at 0.27 nM.
Consider B9, for which the “DLL Inhibition (IC50)” value was > 400 nM and the “Jag1 Inhibition (IC50)” value came out at 0.21 nM.

For another assay the target is unchanged. The assay can be described thus: cell-based or functional assay. This is another data set of the same source.
B10: the “Jagged1 IC50” value was found to be 1.03 nM.
Regarding B11, the “Jagged1 IC50” value was found to be 0.667 nM.
On the same count and under the same terms, the result for B12 reads 3.53 nM; that for B4, 12.5 nM; that for B5, 7.9 nM.
